The labels stand for the following.
B1: grafted humanized 6E6: VH3-21*01 (extended) + VK1-12*01 (IMGT) (antibody, V domains shown)
VH: EVQLVESGGGLVKPGGSLRLSCAASGFTFSNYGMSWVRQAPGKGLEWVSTISSGGGYTHYVDSVKGRFTISRDNAKNSLYLQMNSLRAEDTAVYYCARHPRDFSYAMDYWGQGTTVTVSS
VL: DIQMTQSPSSVSASVGDRVTITCRASQDVGHYLAWYQQKPGKAPKLLIYWASSLQSGVPSRFSGSGSGTDFTLTISSLQPEDFATYYCQQYNIYPWTFGQGTKVEIK
notes: expressed as IgG
B2: grafted humanized 6E6: VH3-11*03 (IMGT) + VK1-8*01 (IMGT) (antibody, V domains shown)
VH: QVQLLESGGGLVKPGGSLRLSCAASGFTFSNYGMSWIRQAPGKGLEWVSYISSGGGYTNYADSVKGRFTISRDNAKNSLYLQMNSLRAEDTAVYYCARHPRDFSYAMDYWGQGTTVTVSS
VL: AIRMTQSPSSFSASTGDRVTITCRASQDVGHYLAWYQQKPGKAPKLLIYWASTLQSGVPSRFSGSGSGTDFTLTISCLQSEDFATYYCQQYNIYPWTFGQGTKVEIK
notes: expressed as IgG
B3: grafted humanized 6E6: VH3-11*03 (extended) + VK3-15*01 (IMGT) (antibody, V domains shown)
VH: QVQLLESGGGLVKPGGSLRLSCAASGFTFSNYGMSWIRQAPGKGLEWVSTISSGGGYTHYVDSVKGRFTISRDNAKNSLYLQMNSLRAEDTAVYYCARHPRDFSYAMDYWGQGTTVTVSS
VL: EIVMTQSPATLSVSPGERATLSCRASQDVGHYLAWYQQKPGQAPRLLIYWASTRATGIPARFSGSGSGTEFTLTISSLQSEDFAVYYCQQYNIYPWTFGQGTKVEIK
notes: expressed as IgG
B4: grafted humanized 6E6: VH3-21*01 (IMGT) + VK3-15*01 (IMGT) (antibody, V domains shown)
VH: EVQLVESGGGLVKPGGSLRLSCAASGFTFSNYGMNWVRQAPGKGLEWVSSISSGGGYTYYADSVKGRFTISRDNAKNSLYLQMNSLRAEDTAVYYCARHPRDFSYAMDYWGQGTTVTVSS
VL: EIVMTQSPATLSVSPGERATLSCRASQDVGHYLAWYQQKPGQAPRLLIYWASTRATGIPARFSGSGSGTEFTLTISSLQSEDFAVYYCQQYNIYPWTFGQGTKVEIK
notes: expressed as IgG
B5: grafted humanized 6E6: VH3-21*01 (extended) + VK1-12*01 (extended) (antibody, V domains shown)
VH: EVQLVESGGGLVKPGGSLRLSCAASGFTFSNYGMSWVRQAPGKGLEWVSTISSGGGYTHYVDSVKGRFTISRDNAKNSLYLQMNSLRAEDTAVYYCARHPRDFSYAMDYWGQGTTVTVSS
VL: DIQMTQSPSSVSASVGDRVTITCKASQDVGHYVAWYQQKPGKAPKLLIYWASTRHTGVPSRFSGSGSGTDFTLTISSLQPEDFATYYCQQYNIYPWTFGQGTKVEIK
notes: expressed as IgG
B6: grafted humanized 6E6: VH3-11*03 (extended) + VK1-12*01 (extended) (antibody, V domains shown)
VH: QVQLLESGGGLVKPGGSLRLSCAASGFTFSNYGMSWIRQAPGKGLEWVSTISSGGGYTHYVDSVKGRFTISRDNAKNSLYLQMNSLRAEDTAVYYCARHPRDFSYAMDYWGQGTTVTVSS
VL: DIQMTQSPSSVSASVGDRVTITCKASQDVGHYVAWYQQKPGKAPKLLIYWASTRHTGVPSRFSGSGSGTDFTLTISSLQPEDFATYYCQQYNIYPWTFGQGTKVEIK
notes: expressed as IgG
B7: grafted humanized 6E6: VH3-11*03 (extended) + VK1-12*01 (IMGT) (antibody, V domains shown)
VH: QVQLLESGGGLVKPGGSLRLSCAASGFTFSNYGMSWIRQAPGKGLEWVSTISSGGGYTHYVDSVKGRFTISRDNAKNSLYLQMNSLRAEDTAVYYCARHPRDFSYAMDYWGQGTTVTVSS
VL: DIQMTQSPSSVSASVGDRVTITCRASQDVGHYLAWYQQKPGKAPKLLIYWASSLQSGVPSRFSGSGSGTDFTLTISSLQPEDFATYYCQQYNIYPWTFGQGTKVEIK
notes: expressed as IgG
B8: grafted humanized 6E6: VH3-21*01 (IMGT) + VK1-8*01 (IMGT) (antibody, V domains shown)
VH: EVQLVESGGGLVKPGGSLRLSCAASGFTFSNYGMNWVRQAPGKGLEWVSSISSGGGYTYYADSVKGRFTISRDNAKNSLYLQMNSLRAEDTAVYYCARHPRDFSYAMDYWGQGTTVTVSS
VL: AIRMTQSPSSFSASTGDRVTITCRASQDVGHYLAWYQQKPGKAPKLLIYWASTLQSGVPSRFSGSGSGTDFTLTISCLQSEDFATYYCQQYNIYPWTFGQGTKVEIK
notes: expressed as IgG
B9: grafted humanized 6E6: VH3-21*01 (IMGT) + VK1-12*01 (IMGT) (antibody, V domains shown)
VH: EVQLVESGGGLVKPGGSLRLSCAASGFTFSNYGMNWVRQAPGKGLEWVSSISSGGGYTYYADSVKGRFTISRDNAKNSLYLQMNSLRAEDTAVYYCARHPRDFSYAMDYWGQGTTVTVSS
VL: DIQMTQSPSSVSASVGDRVTITCRASQDVGHYLAWYQQKPGKAPKLLIYWASSLQSGVPSRFSGSGSGTDFTLTISSLQPEDFATYYCQQYNIYPWTFGQGTKVEIK
notes: expressed as IgG
B10: grafted humanized 6E6: VH3-21*01 (IMGT) + VK1-12*01 (extended) (antibody, V domains shown)
VH: EVQLVESGGGLVKPGGSLRLSCAASGFTFSNYGMNWVRQAPGKGLEWVSSISSGGGYTYYADSVKGRFTISRDNAKNSLYLQMNSLRAEDTAVYYCARHPRDFSYAMDYWGQGTTVTVSS
VL: DIQMTQSPSSVSASVGDRVTITCKASQDVGHYVAWYQQKPGKAPKLLIYWASTRHTGVPSRFSGSGSGTDFTLTISSLQPEDFATYYCQQYNIYPWTFGQGTKVEIK
notes: expressed as IgG
B11: grafted humanized 6E6: VH3-11*03 (IMGT) + VK3-15*01 (IMGT) (antibody, V domains shown)
VH: QVQLLESGGGLVKPGGSLRLSCAASGFTFSNYGMSWIRQAPGKGLEWVSYISSGGGYTNYADSVKGRFTISRDNAKNSLYLQMNSLRAEDTAVYYCARHPRDFSYAMDYWGQGTTVTVSS
VL: EIVMTQSPATLSVSPGERATLSCRASQDVGHYLAWYQQKPGQAPRLLIYWASTRATGIPARFSGSGSGTEFTLTISSLQSEDFAVYYCQQYNIYPWTFGQGTKVEIK
notes: expressed as IgG
B12: grafted humanized 6E6: VH3-11*03 (IMGT) + VK1-12*01 (extended) (antibody, V domains shown)
VH: QVQLLESGGGLVKPGGSLRLSCAASGFTFSNYGMSWIRQAPGKGLEWVSYISSGGGYTNYADSVKGRFTISRDNAKNSLYLQMNSLRAEDTAVYYCARHPRDFSYAMDYWGQGTTVTVSS
VL: DIQMTQSPSSVSASVGDRVTITCKASQDVGHYVAWYQQKPGKAPKLLIYWASTRHTGVPSRFSGSGSGTDFTLTISSLQPEDFATYYCQQYNIYPWTFGQGTKVEIK
notes: expressed as IgG
B13: grafted humanized 6E6: VH3-11*03 (IMGT) + VK1-12*01 (IMGT) (antibody, V domains shown)
VH: QVQLLESGGGLVKPGGSLRLSCAASGFTFSNYGMSWIRQAPGKGLEWVSYISSGGGYTNYADSVKGRFTISRDNAKNSLYLQMNSLRAEDTAVYYCARHPRDFSYAMDYWGQGTTVTVSS
VL: DIQMTQSPSSVSASVGDRVTITCRASQDVGHYLAWYQQKPGKAPKLLIYWASSLQSGVPSRFSGSGSGTDFTLTISSLQPEDFATYYCQQYNIYPWTFGQGTKVEIK
notes: expressed as IgG
B14: grafted humanized 6E6: VH3-11*03 (extended) + VK1-8*01 (IMGT) (antibody, V domains shown)
VH: QVQLLESGGGLVKPGGSLRLSCAASGFTFSNYGMSWIRQAPGKGLEWVSTISSGGGYTHYVDSVKGRFTISRDNAKNSLYLQMNSLRAEDTAVYYCARHPRDFSYAMDYWGQGTTVTVSS
VL: AIRMTQSPSSFSASTGDRVTITCRASQDVGHYLAWYQQKPGKAPKLLIYWASTLQSGVPSRFSGSGSGTDFTLTISCLQSEDFATYYCQQYNIYPWTFGQGTKVEIK
notes: expressed as IgG
B15: grafted humanized 6E6: VH3-21*01 (extended) + VK3-15*01 (IMGT) (antibody, V domains shown)
VH: EVQLVESGGGLVKPGGSLRLSCAASGFTFSNYGMSWVRQAPGKGLEWVSTISSGGGYTHYVDSVKGRFTISRDNAKNSLYLQMNSLRAEDTAVYYCARHPRDFSYAMDYWGQGTTVTVSS
VL: EIVMTQSPATLSVSPGERATLSCRASQDVGHYLAWYQQKPGQAPRLLIYWASTRATGIPARFSGSGSGTEFTLTISSLQSEDFAVYYCQQYNIYPWTFGQGTKVEIK
notes: expressed as IgG
B16: grafted humanized 6E6: VH3-21*01 (extended) + VK1-8*01 (IMGT) (antibody, V domains shown)
VH: EVQLVESGGGLVKPGGSLRLSCAASGFTFSNYGMSWVRQAPGKGLEWVSTISSGGGYTHYVDSVKGRFTISRDNAKNSLYLQMNSLRAEDTAVYYCARHPRDFSYAMDYWGQGTTVTVSS
VL: AIRMTQSPSSFSASTGDRVTITCRASQDVGHYLAWYQQKPGKAPKLLIYWASTLQSGVPSRFSGSGSGTDFTLTISCLQSEDFATYYCQQYNIYPWTFGQGTKVEIK
notes: expressed as IgG
B17: h6E6-110 (antibody, V domains shown)
VH: EVQLVESGGGLVKPGGSLRLSCAASGFTFSHYGVSWVRQAPGKGLEWVSTISSGGGYTHYAESVKGRFTISRDNAKNSLYLQMNSLRAEDTAVYYCARHPRDFSYAQDYWGQGTTVTVSS
VL: EIVMTQSPATLSVSPGERATLSCRASQDVGHYLAWYQQKPGQAPRLLIYWASTRATGIPARFSGSGSGTEFTLTISSLQSEDFAVYYCQQYNIYPWTFGQGTKVEIK
notes: also called clone 110
B18: h6E6-117 (antibody, V domains shown)
VH: EVQLVESGGGLVKPGGSLRLSCAASGFTFSVYGISWVRQAPGKGLEWVSTISSGGGYTHYAPSVKGRFTISRDNAKNSLYLQMNSLRAEDTAVYYCARHPRDFSYAMDYWGQGTTVTVSS
VL: EIVMTQSPATLSVSPGERATLSCKASQDVGHYVAWYQQKPGQAPRLLIYWASTRATGIPARFSGSGSGTEFTLTISSLQSEDFAVYYCQQYNIYPWTFGQGTKVEIK
notes: also called clone 117
B19: h6E6-115 (antibody, V domains shown)
VH: EVQLVESGGGLVKPGGSLRLSCAASGFTFSGYGMSWVRQAPGKGLEWVSTISSGGGYTHYVTSVKGRFTISRDNAKNSLYLQMNSLRAEDTAVYYCARHPRDFSYALDYWGQGTTVTVSS
VL: EIVMTQSPATLSVSPGERATLSCRASQDVGHYLAWYQQKPGQAPRLLIYWASTRATGIPARFSGSGSGTEFTLTISSLQSEDFAVYYCQQYNIYPWTFGQGTKVEIK
notes: also called clone 115

The target in the first assay is T1, human ROR2 (human, UniProt Q01974 34-403, limits assumed). As to the kind of experiment: SPR.
T1 sequence (Q01974 34-403 limits assumed): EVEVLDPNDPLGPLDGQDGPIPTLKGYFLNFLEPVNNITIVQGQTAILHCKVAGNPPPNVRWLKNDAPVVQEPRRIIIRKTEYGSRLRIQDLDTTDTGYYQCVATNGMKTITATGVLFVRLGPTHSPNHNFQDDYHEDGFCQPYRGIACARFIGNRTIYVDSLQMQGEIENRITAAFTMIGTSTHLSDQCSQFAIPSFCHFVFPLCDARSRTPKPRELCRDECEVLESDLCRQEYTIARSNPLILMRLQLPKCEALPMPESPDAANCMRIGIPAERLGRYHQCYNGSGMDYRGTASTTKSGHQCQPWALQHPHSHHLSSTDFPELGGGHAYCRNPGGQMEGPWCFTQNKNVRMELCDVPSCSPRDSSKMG
B1 registered a Kd of 0.52 nM.

On to B2, for which the binding result is listed as “no binding”.

B3 showed a Kd of 1.1 nM. In other words, the single-digit nanomolar range.

Consider B4, for which the binding result is on record as “no binding”.

The molecule B5 displayed a Kd of 0.67 nM. That is a sub-nanomolar value.

As to B6, binding was put at a Kd of 2.1 nM. This Kd is about 3.1-fold higher than that of the molecule before.

As to B7, the binding result is reported as “no binding”.

For B8, the binding result is “no binding”.

For B9, the binding result is listed as “no binding”.

Consider B10, for which the binding result is “no binding”.

With B11, the dissociation constant Kd was determined as 64 nM.

B12 had a Kd of 162 nM.

On to B13, for which binding was put at a Kd of 178 nM.

Regarding B14, the Kd came to 1.1 nM.

Molecule B15 registered a dissociation constant Kd of 0.58 nM. Compared with the last molecule, the Kd is about 1.9-fold lower.

B16: the Kd was found to be 10 nM. Compared with the last molecule, the Kd is about 17-fold higher.

Another assay concerns the target T1, human ROR2. In words: SPR. This is another data set of the same source. In short, it runs like this:
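Using surface plasmon resonance, the dissociation constant (Kd, nM) was determined for binding of humanized anti-human ROR2 monoclonal antibodies to human ROR2. These antibodies carry murine complementarity-determining regions in human acceptor frameworks and a human IgG1 constant region. No antigen format, concentrations, temperature, buffer or replicate count is stated.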
For B17, the Kd was 0.073 nM. This lies in the picomolar range.

On to B18, for which the Kd came out at 0.323 nM.

B19 returned a Kd of 0.187 nM.

The record behind these values is US20260209348A1 (University of California, published 2026).
